Laboratory results reported in paper PMC9376089, “Reformation of the chondroitin sulfate glycocalyx enables progression of AR-independent prostate cancer”.

Assays:
AR-DBD (EMSA) [1] = molecular target: T1, AR-DBD (EMSA) (UniProt P10275 556-629); test: EMSA; 100 fmol probe, AR-DBD titration, poly(dI-dC); BLI: 20 mM Tris pH 8, 150 mM NaCl, 5% glycerol, 2 mM DTT, 0.1 mM PMSF, temperature not stated; EMSA: 10 mM Tris pH 7.5, 50 mM KCl, DTT (1 mM); 2.5 mM with 0.25%; details: protein: recombinant, chain copies: 2, blunt
T1 sequence (P10275 556-629): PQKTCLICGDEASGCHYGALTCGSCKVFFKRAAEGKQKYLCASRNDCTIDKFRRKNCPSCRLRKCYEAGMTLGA

AR-DBD (EMSA) [2] = molecular target: T1, AR-DBD (EMSA); test: competition; 20 nmol unlabeled competitor (so in the source) vs labeled TMPRSS2-ARE; BLI: 20 mM Tris pH 8, 150 mM NaCl, 5% glycerol, 2 mM DTT, 0.1 mM PMSF, temperature not stated; EMSA: 10 mM Tris pH 7.5, 50 mM KCl, DTT (1 mM); 2.5 mM with 0.25%; details: protein: recombinant; chain copies: 2; blunt

B1: CHST11-ARE (EMSA probe) (dsDNA)
DNA 1: AGATGCCCCAGTGTTCTAG
DNA 2: CTAGAACACTGGGGCATCT
Does B1 bind (AR-DBD (EMSA) [1])?
Result: binds

B2: PSA-ARE (EMSA probe) (dsDNA)
DNA 1: TACAAATAGGTTCTTGGAGTACTTTACTAGGCATGGACAATG
DNA 2: CATTGTCCATGCCTAGTAAAGTACTCCAAGAACCTATTTGTA
Does B2 bind (AR-DBD (EMSA) [1]; label: 5' IRD700 on strand 1)?
Result: binds

B3: CHST11-ARE (unlabeled competitor) (dsDNA)
DNA 1: AGATGCCCCAGTGTTCTAG
DNA 2: CTAGAACACTGGGGCATCT
Does B3 bind (AR-DBD (EMSA) [2])?
Result: binds
